Bridge positions count the residues as written; N and C are the ends. Square brackets hold non-standard residues; d marks the D form. Trp(1-Me) = Cn1cc(C[C@H](N)C(=O)O)c2ccccc21; NMeI = CC[C@H](C)[C@H](NC)C(=O)O; Nle = CCCC[C@H](N)C(=O)O; Sar = CNCC(=O)O

Usually Kd stands for the constant that tells how readily two partners part at equilibrium. A low value points to a tighter complex. Broadly, the koff is the first-order rate constant of dissociation. High values mean fast dissociation, low ones slow dissociation. Broadly, the kon is a measure of how fast the partners come together. A high value points to fast association.

For assay [1], the target named is biotinylated C3b (UniProt P01024). The assay is described as follows: SPR, Biacore 3000; biotinylated C3b on streptavidin chip, peptide injected; 1:1 fit. (SPR reads the build-up and loss of mass on a sensor chip optically.)
Assay [2] has the same target. Nature of the assay: SPR on immobilised C3b; ratio relative to peptide 14.
Assay [3] deals with T1, C3 purified from fresh human plasma (human, UniProt P01024 23-1663). Nature of the assay: cell-based or functional assay.
T1 sequence (P01024 23-1663): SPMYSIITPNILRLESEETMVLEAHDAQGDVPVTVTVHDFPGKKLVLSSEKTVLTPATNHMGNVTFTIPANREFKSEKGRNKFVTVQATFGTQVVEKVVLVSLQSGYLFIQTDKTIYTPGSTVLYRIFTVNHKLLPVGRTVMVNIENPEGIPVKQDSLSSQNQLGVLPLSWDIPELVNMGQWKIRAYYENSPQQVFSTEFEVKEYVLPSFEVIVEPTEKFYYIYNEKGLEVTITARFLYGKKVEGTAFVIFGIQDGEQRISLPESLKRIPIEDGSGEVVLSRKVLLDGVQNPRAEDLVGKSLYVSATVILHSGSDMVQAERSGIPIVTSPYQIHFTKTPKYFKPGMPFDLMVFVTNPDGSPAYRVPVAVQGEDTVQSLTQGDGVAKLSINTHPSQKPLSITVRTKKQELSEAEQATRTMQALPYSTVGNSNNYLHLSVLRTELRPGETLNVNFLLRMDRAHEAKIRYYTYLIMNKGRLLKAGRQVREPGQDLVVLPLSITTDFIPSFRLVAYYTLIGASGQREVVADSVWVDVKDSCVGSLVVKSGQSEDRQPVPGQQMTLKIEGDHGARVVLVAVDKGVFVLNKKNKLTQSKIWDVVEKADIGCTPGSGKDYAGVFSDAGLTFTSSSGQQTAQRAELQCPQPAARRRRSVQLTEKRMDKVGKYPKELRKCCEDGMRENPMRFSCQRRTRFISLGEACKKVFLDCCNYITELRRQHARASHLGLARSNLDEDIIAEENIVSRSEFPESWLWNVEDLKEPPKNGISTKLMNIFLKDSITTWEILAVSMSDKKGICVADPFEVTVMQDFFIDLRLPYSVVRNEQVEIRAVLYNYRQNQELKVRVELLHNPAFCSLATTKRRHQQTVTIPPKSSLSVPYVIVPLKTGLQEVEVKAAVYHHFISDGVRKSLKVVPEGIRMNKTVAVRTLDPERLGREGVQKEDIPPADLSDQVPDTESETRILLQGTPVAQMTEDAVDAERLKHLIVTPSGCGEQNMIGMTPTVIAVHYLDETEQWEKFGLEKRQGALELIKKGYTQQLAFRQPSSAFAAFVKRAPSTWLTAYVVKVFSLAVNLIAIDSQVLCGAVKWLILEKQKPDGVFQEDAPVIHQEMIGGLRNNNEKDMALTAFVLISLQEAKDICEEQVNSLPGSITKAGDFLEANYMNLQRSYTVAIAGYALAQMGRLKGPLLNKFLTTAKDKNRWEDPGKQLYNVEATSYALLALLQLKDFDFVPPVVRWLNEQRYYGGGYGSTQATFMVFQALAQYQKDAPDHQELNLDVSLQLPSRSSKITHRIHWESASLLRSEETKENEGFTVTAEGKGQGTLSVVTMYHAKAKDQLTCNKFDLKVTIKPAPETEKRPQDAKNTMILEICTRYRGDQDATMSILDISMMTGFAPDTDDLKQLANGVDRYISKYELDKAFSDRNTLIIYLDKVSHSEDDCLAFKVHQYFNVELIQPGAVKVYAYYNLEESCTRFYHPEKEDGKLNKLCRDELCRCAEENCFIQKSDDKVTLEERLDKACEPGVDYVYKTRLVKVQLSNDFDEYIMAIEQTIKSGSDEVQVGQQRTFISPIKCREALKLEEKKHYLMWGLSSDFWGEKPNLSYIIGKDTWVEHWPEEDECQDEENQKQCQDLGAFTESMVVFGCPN
Assay [4] deals with T1, C3 purified from fresh human plasma. The assay is described as follows: cell-based or functional assay. The source holds these as a separate data set.
For assay [5] the target is unchanged. Nature of the assay: cell-based or functional assay. The source holds these as a separate data set.
Assay [6] has the same target. Nature of the assay: ITC; peptide titrated into C3, PBS, 25 C. As for the experimental part: (§1) ITC analysis. All ITC experiments were performed with the Microcal VP-ITC calorimeter (Microcal Inc., Northampton, Mass.), using protein concentrations of 1.8-5 μM C3 in the cell and peptide concentrations of 40-100 μM of individual compstatin analogs in the syringe. All titrations were performed in PBS (10 mM phosphate buffer with 150 mM NaCl, pH 7.4) at 25° C. using multiple peptide injections of 2-7 μL each. The raw isotherms were corrected for the heats of dilution by subtracting the isotherms representing peptide injections into the buffer. The resulting isotherms were fitted to a single site of sites models using Origin 7.0 software, and the model that produced the lowest χ² value was deemed to be appropriate for the respective data set. The Gibbs free energy was calculated as ΔG=ΔH−TΔS. Each experiment was repeated at least twice.
(§2) Characterization of binding thermodynamics.

Assay [7] shares this target. The assay is described as follows: ITC with C3; relative to peptide 14. As for the experimental part:
as §1, §2

Assay [8] shares this target. The assay is described as follows: cell-based or functional assay. This is another data set of the same source.

B1: Ac-Ic[CV(1-MeW)QDW(N-MeG)AHRC]L-NH2 (peptide)
peptide: Ac-ICV[Trp(1-Me)]QDW[Sar]AHRCL-NH2
modifications: disulfide 2-12
SMILES: CC[C@H](C)[C@H](NC(C)=O)C(=O)N[C@H]1CSSC[C@@H](C(=O)N[C@@H](CC(C)C)C(N)=O)NC(=O)[C@H](CCCNC(=N)N)NC(=O)[C@H](Cc2c[nH]cn2)NC(=O)[C@H](C)NC(=O)CN(C)C(=O)[C@H](Cc2c[nH]c3ccccc23)NC(=O)[C@H](CC(=O)O)NC(=O)[C@H](CCC(N)=O)NC(=O)[C@H](Cc2cn(C)c3ccccc23)NC(=O)[C@H](C(C)C)NC1=O
As for B1, in the assay with biotinylated C3b [1], the Kd was determined as 4.6 nM, the koff is 0.006 s⁻¹ and the on-rate constant (kon) came out at 1.3e+06 M⁻¹ s⁻¹. In the assay with biotinylated C3b [2], the rKD SPR stood at 2.6 fold, the rka was 1.3 fold and the rkd was determined as 1.9 fold. Besides, the “rP, relative potency compared to peptide 14” value (from here on “rP, relative potency”) in assay [3] amounted to 1.9 fold. Also, the “IC50, inhibition of classical pathway complement activation, ELISA” value (shortened to “IC50, inhibition”) in assay [4] was 108 nM. The “Fold change in activity (IC50) relative to SEQ ID NO:4” value in assay [5] amounted to 1.91 fold.

B2: Ac-Ic[CV(1-MeW)QDW(N-MeG)AHRC](N-MeI)-NH2 (peptide)
peptide: Ac-ICV[Trp(1-Me)]QDW[Sar]AHRC[NMeI]-NH2
modifications: disulfide 2-12
SMILES: CC[C@H](C)[C@H](NC(C)=O)C(=O)N[C@H]1CSSC[C@@H](C(=O)N(C)[C@H](C(N)=O)[C@@H](C)CC)NC(=O)[C@H](CCCNC(=N)N)NC(=O)[C@H](Cc2c[nH]cn2)NC(=O)[C@H](C)NC(=O)CN(C)C(=O)[C@H](Cc2c[nH]c3ccccc23)NC(=O)[C@H](CC(=O)O)NC(=O)[C@H](CCC(N)=O)NC(=O)[C@H](Cc2cn(C)c3ccccc23)NC(=O)[C@H](C(C)C)NC1=O
notes: Sar^8, (NMe)Ile^13; also called peptide 21; analog 21
For B2, in assay [6], the “-TΔS” value worked out at 5.7 kcal/mol, the ΔG was -11.4 kcal/mol and the ΔH is -17.1 kcal/mol. In addition, in the assay with biotinylated C3b [1], the Kd stood at 2.3 nM, the koff is 0.0035 s⁻¹ and the kon was found to be 1.5e+06 M⁻¹ s⁻¹. Besides, in assay [7], the “-TΔΔS” value is -1.3 kcal/mol, the “rKD ITC” value came to 3.3 fold, the ΔΔG is -0.7 kcal/mol and the ΔΔH amounted to 0.5 kcal/mol. Moreover, in the assay with biotinylated C3b [2], the rKD SPR turned out to be 5.2 fold, the rka was determined as 1.5 fold and the rkd is 3.2 fold. In addition, the “rP, relative potency” value in assay [3] is 3.3 fold. In addition, the “IC50, inhibition” value in assay [4] was 62 nM. Further, the “Fold change in activity (IC50) relative to SEQ ID NO:4” value in assay [5] came to 3.32 fold.

B3: Ac-Ile-c[Cys-Val-Trp(Me)-Gln-Asp-Trp-Sar-Ala-His-Arg-Cys]-Ile-NH2 (peptide)
peptide: Ac-ICV[Trp(1-Me)]QDW[Sar]AHRCI-NH2
modifications: disulfide 2-12
SMILES: CC[C@H](C)[C@H](NC(=O)[C@@H]1CSSC[C@H](NC(=O)[C@@H](NC(C)=O)[C@@H](C)CC)C(=O)N[C@@H](C(C)C)C(=O)N[C@@H](Cc2cn(C)c3ccccc23)C(=O)N[C@@H](CCC(N)=O)C(=O)N[C@@H](CC(=O)O)C(=O)N[C@@H](Cc2c[nH]c3ccccc23)C(=O)N(C)CC(=O)N[C@@H](C)C(=O)N[C@@H](Cc2c[nH]cn2)C(=O)N[C@@H](CCCNC(=N)N)C(=O)N1)C(N)=O
notes: Sar^8, Ile^13; also called peptide 17; Ac-Ic[CV(1-MeW)QDW(N-MeG)AHRC]I-NH2
As for B3, in assay [8], the “IC50 (nM, CP), inhibition of classical pathway complement activation, ELISA, human serum” value was 92 nM and the “IC50 fold change relative to peptide 17” value stood at 1 fold. In assay [6], the “-TΔS” value turned out to be 2.9 kcal/mol, the ΔG was -11.2 kcal/mol and the ΔH is -14.1 kcal/mol. In the assay with biotinylated C3b [1], this molecule had a dissociation constant (Kd) of 4.4 nM, an off-rate (koff) of 0.0066 s⁻¹ and an on-rate (kon) of 1.5e+06 M⁻¹ s⁻¹. Also, in assay [7], the “-TΔΔS” value was -4.1 kcal/mol, the “rKD ITC” value stood at 2.4 fold, the ΔΔG is -0.5 kcal/mol and the ΔΔH is 3.5 kcal/mol. In the assay with biotinylated C3b [2], the rKD SPR worked out at 2.7 fold, the rka was found to be 1.5 fold and the rkd was determined as 1.7 fold. In assay [3], the “rP, relative potency” value was 2.2 fold. Further, in assay [4], the “IC50, inhibition” value amounted to 92 nM. The “Fold change in activity (IC50) relative to SEQ ID NO:4” value in assay [5] was 2.24 fold.

B4: Ac-Ic[CV(1-MeW)QDW(N-MeG)AHRC](Nle)-NH2 (peptide)
peptide: Ac-ICV[Trp(1-Me)]QDW[Sar]AHRC[Nle]-NH2
modifications: disulfide 2-12
SMILES: CCCC[C@H](NC(=O)[C@@H]1CSSC[C@H](NC(=O)[C@@H](NC(C)=O)[C@@H](C)CC)C(=O)N[C@@H](C(C)C)C(=O)N[C@@H](Cc2cn(C)c3ccccc23)C(=O)N[C@@H](CCC(N)=O)C(=O)N[C@@H](CC(=O)O)C(=O)N[C@@H](Cc2c[nH]c3ccccc23)C(=O)N(C)CC(=O)N[C@@H](C)C(=O)N[C@@H](Cc2c[nH]cn2)C(=O)N[C@@H](CCCNC(=N)N)C(=O)N1)C(N)=O
In the assay with biotinylated C3b [1], B4 registered a dissociation constant (Kd) of 4.4 nM, a koff of 0.0066 s⁻¹ and an on-rate constant (kon) of 1.5e+06 M⁻¹ s⁻¹. Further, in the assay with biotinylated C3b [2], the rKD SPR is 2.7 fold, the rka turned out to be 1.5 fold and the rkd is 1.7 fold. Moreover, the “rP, relative potency” value in assay [3] was found to be 1.9 fold. Also, the “IC50, inhibition” value in assay [4] was determined as 109 nM. Also, the “Fold change in activity (IC50) relative to SEQ ID NO:4” value in assay [5] came to 1.9 fold.

(Values after patent US20120178694A1 (University of Pennsylvania, published 2012).)
